This test has as its target acetylcholine receptor. Briefly: SPR, receptor immobilized on CM5 chip, peptide 10 uM. On the technique in general: SPR reads the build-up and loss of mass on a sensor chip optically.

B1: 6mer-1-322 (peptide)
peptide: KRGVQR
B1 yielded a Binding affinity (RU) of 146 RU.

B2: 6mer-1-872 (peptide)
peptide: KRPCHR
B2 showed a Binding affinity (RU) of 23 RU.

B3: 6mer-1-329 (peptide)
peptide: RKWRQK
B3 displayed a Binding affinity (RU) of 123 RU.

B4: 6mer-1-871 (peptide)
peptide: KREWDR
On to B4, for which the Binding affinity (RU) came out at 30 RU.

B5: 6mer-1-301 (peptide)
peptide: RRSILR
On to B5, for which the Binding affinity (RU) worked out at 154 RU.

B6: 6mer-1-319 (peptide)
peptide: KRWVQK
On to B6, for which the Binding affinity (RU) amounted to 123 RU.

B7: 6mer-1-317 (peptide)
peptide: KRSFRR
The molecule B7 gave a Binding affinity (RU) of 148 RU.

B8: 6mer-1-870 (peptide)
peptide: KRMSHR
B8 gave a Binding affinity (RU) of 25 RU.

B9: 6mer-1-315 (peptide)
peptide: RKQQTK
For the molecule B9, the Binding affinity (RU) was 128 RU.

B10: 6mer-1-304 (peptide)
peptide: RKLYSR
Molecule B10 yielded a Binding affinity (RU) of 121 RU.

B11: 6mer-1-299 (peptide)
peptide: KRWLSK
On to B11, for which the Binding affinity (RU) turned out to be 139 RU.

B12: 6mer-1-318 (peptide)
peptide: KKSRRK
The molecule B12 gave a Binding affinity (RU) of 145 RU.

B13: 6mer-1-321 (peptide)
peptide: RKQVRR
B13 displayed a Binding affinity (RU) of 154 RU.

B14: 6mer-1-868 (peptide)
peptide: KKHHAR
For the molecule B14, the Binding affinity (RU) is 14 RU.

B15: 6mer-1-334 (peptide)
peptide: RRRRLR
In the case of B15, the Binding affinity (RU) amounted to 154 RU.

B16: 6mer-1-875 (peptide)
peptide: KKTNGR
For the molecule B16, the Binding affinity (RU) amounted to 33 RU.

B17: 6mer-1-305 (peptide)
peptide: RKWISR
B17 registered a Binding affinity (RU) of 153 RU.

B18: 6mer-1-323 (peptide)
peptide: RRWLYR
In the case of B18, the Binding affinity (RU) came to 149 RU.

B19: 6mer-1-867 (peptide)
peptide: KRIPMR
In the case of B19, the Binding affinity (RU) was 25 RU.

B20: 6mer-1-320 (peptide)
peptide: KRVQYR
For B20, the Binding affinity (RU) was determined as 121 RU.

B21: 6mer-1-326 (peptide)
peptide: RKWIYK
B21 registered a Binding affinity (RU) of 136 RU.

B22: 6mer-1-333 (peptide)
peptide: RKRQSR
The molecule B22 showed a Binding affinity (RU) of 135 RU.

B23: 6mer-1-297 (peptide)
peptide: RRGFSK
B23 came in with a Binding affinity (RU) of 139 RU.

B24: 6mer-1-331 (peptide)
peptide: RKRITR
B24 came in with a Binding affinity (RU) of 128 RU.

B25: 6mer-1-877 (peptide)
peptide: KKPEWR
B25: the Binding affinity (RU) was 19 RU.

B26: 6mer-1-306 (peptide)
peptide: KKLFYR
As to B26, the Binding affinity (RU) was 135 RU.

B27: 6mer-1-328 (peptide)
peptide: KRWLQK
As for B27, the Binding affinity (RU) is 151 RU.

B28: 6mer-1-313 (peptide)
peptide: RRWFCK
As for B28, the Binding affinity (RU) was 148 RU.

B29: 6mer-1-311 (peptide)
peptide: RRGYQK
Turning to B29, the Binding affinity (RU) amounted to 127 RU.

B30: 6mer-1-330 (peptide)
peptide: RKVQRK
For B30, the Binding affinity (RU) amounted to 148 RU.

B31: 6mer-1-314 (peptide)
peptide: RRRILR
Molecule B31 showed a Binding affinity (RU) of 141 RU.

B32: 6mer-1-325 (peptide)
peptide: RRQIQR
Regarding B32, the Binding affinity (RU) came out at 142 RU.

B33: 6mer-1-302 (peptide)
peptide: RRGQSR
Consider B33, for which the Binding affinity (RU) is 151 RU.

B34: 6mer-1-876 (peptide)
peptide: RKYWAR
In turn, B34 came in with a Binding affinity (RU) of 19 RU.

B35: 6mer-1-866 (peptide)
peptide: KRCHFR
Turning to B35, the Binding affinity (RU) was determined as 26 RU.

B36: 6mer-1-878 (peptide)
peptide: RRKDNR
Take B36: the Binding affinity (RU) turned out to be 27 RU.

B37: 6mer-1-874 (peptide)
peptide: KRANHK
In turn, B37 registered a Binding affinity (RU) of 18 RU.

B38: 6mer-1-307 (peptide)
peptide: KRWYRR
In turn, B38 registered a Binding affinity (RU) of 153 RU.

B39: 6mer-1-332 (peptide)
peptide: KKRVQK
B39 yielded a Binding affinity (RU) of 122 RU.

B40: 6mer-1-298 (peptide)
peptide: KKLYCK
In the case of B40, the Binding affinity (RU) was 147 RU.

B41: 6mer-1-310 (peptide)
peptide: RKRQLK
Molecule B41 registered a Binding affinity (RU) of 127 RU.

B42: 6mer-1-873 (peptide)
peptide: KRIWAR
Take B42: the Binding affinity (RU) is 23 RU.

B43: 6mer-1-303 (peptide)
peptide: RKQYCK
Molecule B43 showed a Binding affinity (RU) of 123 RU.

B44: 6mer-1-869 (peptide)
peptide: KRKDER
Molecule B44 returned a Binding affinity (RU) of 22 RU.

B45: 6mer-1-316 (peptide)
peptide: RKQIRK
Molecule B45 showed a Binding affinity (RU) of 145 RU.

B46: 6mer-1-327 (peptide)
peptide: KRGITR
In the case of B46, the Binding affinity (RU) was found to be 139 RU.

B47: 6mer-1-312 (peptide)
peptide: KKSRQK
Take B47: the Binding affinity (RU) was determined as 151 RU.

B48: 6mer-1-300 (peptide)
peptide: RRWQQK
B48 registered a Binding affinity (RU) of 148 RU.

B49: 6mer-1-308 (peptide)
peptide: KRRITR
B49 yielded a Binding affinity (RU) of 135 RU.

B50: 6mer-1-309 (peptide)
peptide: KKGICK
In turn, B50 returned a Binding affinity (RU) of 153 RU.

B51: 6mer-1-324 (peptide)
peptide: RRLQRR
Take B51: the Binding affinity (RU) amounted to 128 RU.

The values are drawn from patent US20250011363A1, “OPTIMIZED SHORTENED PEPTIDE THAT BINDS TO ACETYLCHOLINE RECEPTOR, AND USE THEREOF” (SKINMED CO., LTD., priority 2021, published 2025).
